What was measured:
[1] = tested on: iPS cells; assay: Three-dimensional suspension culture with BMP4, hCG quantified by i-STAT cartridge Total β-hCG; assay type: cell-based, human
Description: In the i-STAT cartridge Total β-hCG, about 17 μL of the culture supernatant was sampled, injected into the reagent cartridge, and inserted into the single-purpose analyzer.
On the other hand, three-dimensional suspension culture was started at the same time using the same iPS cells used in the two-dimensional culture adhesion culture. 30 mL of an iPS cell medium (StemFit (registered trade name) AK02N: Ajinomoto Co., Inc.) was dispensed into a 30 mL volume spinner flask (ABLE Corporation), and then iPS cells (1.3×10^6 cells/mL) were seeded. In the same manner as in the two-dimensional adhesion culture, BMP4 was not added at the start of culture, but a medium to which a solution containing 50 μg/mL BMP4 (R&D Systems Inc.) was added at the same proportion as that used in the two-dimensional adhesion culture was used after the 4th day of culture. After the start of culture, the addition of BMP4 to the medium was continued until the 14th day of culture while the medium was exchanged every 3 to 4 days, and thereafter, a medium to which BMP4 had not been added was used. In three-dimensional suspension culture, stirring culture was continued in a spinner flask throughout the culture period. While continuing the two-dimensional adhesion culture and the three-dimensional suspension culture, the culture supernatant was appropriately sampled after the 7th day of culture, and the amount of hCG produced was quantified using the i-STAT cartridge Total β-hCG. Since there are differences in the number of cells that can be seeded at the start of culture and the adding amount of medium between the two-dimensional culture and the three-dimensional culture, there are differences in the hCG concentration and the total hCG production in the culture supernatant, and thus it is not possible to simply compare them. For this reason, the hCG quantification value on the 7th day of culture after the start of differentiation induction into the placenta was set to 100, and the ratio of the hCG quantification value on the subsequent culture measurement day to the hCG quantification value on the 7th day of culture was calculated. That is, in a case where the hCG quantification value on the 7th day is set to 100 in each of the two-dimensional and three-dimensional culture forms, the subsequent changes after the 7th day in the hCG production amount are shown in FIG. 2. It was confirmed that in the two-dimensional culture, the decrease in hCG production amount is particularly remarkable after the 15th day of culture, whereas in the three-dimensional culture, the hCG continues to be produced after the 15th day, and even on the 25th day of culture, 10 times or more of the hCG production is maintained as compared with the 7th day of culture.

[2] = tested on: iPS cells; assay: Three-dimensional suspension (spinner flask) culture of iPS cells with BMP4, hCG by GONASTICK W; assay type: cell-based, human; settings: for hCG production: Example 1, spinner flask
Description: In GONASTICK W, about 0.5 to 1 mL of the culture supernatant was sampled, and a test strip was soaked therein. After the soaking was completed, the determination surface of the test strip was placed to face upward and allowed to stand until the culture supernatant passed through the determination window and reached the reaction end window. […] The detection sensitivity of the present examination reagent is 25 IU/L, and a blue control line corresponding to an hCG concentration of 1,000 IU/L is printed in advance on the determination window, which can be visually compared with the determination line.
In a case where a line equal to or more blue-colored than the control line was visually observed on the determination line, it was judged as positive (+).
In a case where the line was not visually observed on the determination line, it was determined to be negative (−).
In a case where a line that was less blue-colored than the control line but was visible was visually observed on the determination line, it was determined to be (+/−).
30 mL of an iPS cell medium (StemFit (registered trade name) AK02N: Ajinomoto Co., Inc.) was dispensed into a 30 mL volume spinner flask (ABLE Corporation), and then iPS cells (1.6×10^7 cells/mL) were seeded. BMP4 was not added at the start of culture, but 30 μL of a solution containing 50 μg/mL BMP4 (R&D Systems Inc.) was added on the 4th day of culture so that the final concentration of BMP4 in the medium was to be 50 ng/mL. In a case where BMP4 was added to Example 2 and subsequent Examples, the same concentration was used. After the start of culture, the addition of BMP4 was continued until the 18th day of culture while exchanging half of the medium every 3 to 4 days, and thereafter, only the medium was exchanged without adding BMP4. Cell aggregates (spheroids) were formed by the 4th day of culture (FIG. 1). The stirring culture was continued in a spinner flask throughout the culture period. Although the hCG production was not confirmed until the 11th day of culture, the hCG production was confirmed after the 15th day of culture, and it was confirmed that the hCG production was continued even after the 60th day of culture (Table 2).
30 mL of an iPS cell medium (StemFit (registered trade name) AK02N: Ajinomoto Co., Inc.) was dispensed into a 30 mL volume spinner flask (ABLE Corporation), and then iPS cells (1.1×10^7 cells/bottle) were seeded. The comparison was carried out between the level 1 in which BMP4 was not added at the start of culture but added on the 4th day of culture and the level 2 in which BMVP was added from the start of culture. BMP4 was added so that the concentration in the medium was 50 ng/mL in both the level 1 and the level 2. After the start of culture, half of the medium was exchanged every 3 to 4 days, and after the 18th day of culture, the medium was exchanged for both the level 1 and the level 2 with a medium to which BMP4 had not been added. By the 4th day of culture, cell aggregates (spheroids) were formed. Regarding the level 1 and the level 2, stirring culture was continued in a spinner flask from the initial stage of culture, and the hCG production was checked. In a case where BMP4 is added from the start of culture (the level 2), the hCG production is started earlier; however, the hCG production also stops earlier. On the other hand, in a case where BMP4 is added after the 4th day of culture (the level 1), the hCG production is slightly delayed; however, it continued for a long time.

[3] = Three-dimensional culture, day 10
[4] = Three-dimensional culture, day 14
[5] = Three-dimensional culture, day 17
[6] = Three-dimensional culture, day 19
[7] = Three-dimensional culture, day 21
[8] = Three-dimensional culture, day 25

B1: BMP4: bone morphogenetic protein BMP4 (R&D Systems Inc.), added to iPS cell medium at 50 ng/mL to induce differentiation (protein, UniProt P12644 293-408, looked up)
Bone morphogenetic protein 4: SPKHHSQRARKKNKNCRRHSLYVDFSDVGWNDWIVAPPGYQAFYCHGDCPFPLADHLNSTNHAIVQTLVNSVNSSIPKACCVPTELSAISMLYLDEYDKVVLKNYQEMVVEGCGCR
In the case of B1, the hCG production ([1]; Three-dimensional culture, BMP4 day 4 to 14, day 7) is reported as 1.6 IU, the “hCG* production (hCG production on each of culture days/hCG production amount on 7th day) × 100” value ([1]; Three-dimensional culture, day 7) is reported as 100 AU and the hCG production [1, 3] is reported as 61 IU. For the same molecule, the “hCG* production (relative to 7th day × 100)” value [1, 3] was 3,936 AU, the hCG production [1, 4] was 79 IU and the “hCG* production (relative to 7th day × 100)” value [1, 4] was 5,044 AU. The hCG production [1, 5] was 120 IU, the “hCG* production (relative to 7th day × 100)” value [1, 5] was 7,692 AU and the hCG production [1, 6] was 120 IU. The “hCG* production (relative to 7th day × 100)” value [1, 6] was 7,692 AU, the hCG production [1, 7] was 54 IU and the “hCG* production (relative to 7th day × 100)” value [1, 7] was 3,465 AU. For the same molecule, the hCG production [1, 8] was 23 IU, the “hCG* production (relative to 7th day × 100)” value [1, 8] was 1,498 AU and the “hCG production on 25th day as compared with the 7th day of culture” value ([1]; three-dimensional culture) was at least 10 times. For the same molecule, the hCG production ([2]; BMP4 50 ng/mL day 4 to 18, day 15) was “+ (a line equal to or more blue-colored than the control line was visually observed on the determination line, it was judged as positive (+))”, the hCG production ([2]; BMP4 50 ng/mL day 4 to 18, day 39) was “+ (a line equal to or more blue-colored than the control line was visually observed on the determination line, it was judged as positive (+))” and the hCG production ([2]; BMP4 50 ng/mL day 4 to 18, day 53) was “+ (a line equal to or more blue-colored than the control line was visually observed on the determination line, it was judged as positive (+))”. For the same molecule, the hCG production ([2]; BMP4 50 ng/mL day 4 to 18, day 67) was “+ (a line equal to or more blue-colored than the control line was visually observed on the determination line, it was judged as positive (+))”, the HCG production ([2]; level 1: BMP4 50 ng/mL added from day 4, spinner flask, day 8) was “− (the line was not visually observed on the determination line, it was determined to be negative (−))” and the HCG production ([2]; level 1: BMP4 added from day 4, day 11) was “− (the line was not visually observed on the determination line, it was determined to be negative (−))”. The HCG production ([2]; level 1: BMP4 added from day 4, day 14) was “+/− (a line that was less blue-colored than the control line but was visible was visually observed on the determination line, it was determined to be (+/−))”, the HCG production ([2]; level 1: BMP4 added from day 4, day 18) was “+ (a line equal to or more blue-colored than the control line was visually observed on the determination line, it was judged as positive (+))” and the HCG production ([2]; level 1: BMP4 added from day 4, day 21) was “+ (a line equal to or more blue-colored than the control line was visually observed on the determination line, it was judged as positive (+))”. The HCG production ([2]; level 1: BMP4 added from day 4, day 25) was “+ (a line equal to or more blue-colored than the control line was visually observed on the determination line, it was judged as positive (+))”, the HCG production ([2]; level 1: BMP4 added from day 4, day 28) was “+ (a line equal to or more blue-colored than the control line was visually observed on the determination line, it was judged as positive (+))” and the HCG production ([2]; level 1: BMP4 added from day 4, day 32) was “+ (a line equal to or more blue-colored than the control line was visually observed on the determination line, it was judged as positive (+))”. For the same molecule, the HCG production ([2]; level 2: BMP4 50 ng/mL added from start of culture, spinner flask, day 8) was “+ (a line equal to or more blue-colored than the control line was visually observed on the determination line, it was judged as positive (+))”, the HCG production ([2]; level 2: BMP4 added from start of culture, day 11) was “+ (a line equal to or more blue-colored than the control line was visually observed on the determination line, it was judged as positive (+))” and the HCG production ([2]; level 2: BMP4 added from start of culture, day 14) was “+ (a line equal to or more blue-colored than the control line was visually observed on the determination line, it was judged as positive (+))”. The HCG production ([2]; level 2: BMP4 added from start of culture, day 18) was “+ (a line equal to or more blue-colored than the control line was visually observed on the determination line, it was judged as positive (+))”, the HCG production ([2]; level 2: BMP4 added from start of culture, day 21) was “+ (a line equal to or more blue-colored than the control line was visually observed on the determination line, it was judged as positive (+))” and the HCG production ([2]; level 2: BMP4 added from start of culture, day 25) was “+/− (a line that was less blue-colored than the control line but was visible was visually observed on the determination line, it was determined to be (+/−))”. For the same molecule, the HCG production ([2]; level 2: BMP4 added from start of culture, day 28) was “− (the line was not visually observed on the determination line, it was determined to be negative (−))” and the HCG production ([2]; level 2: BMP4 added from start of culture, day 32) was “− (the line was not visually observed on the determination line, it was determined to be negative (−))”.

From US20220154138A1, “METHOD OF PRODUCING PLACENTA-LIKE ORGANOID, PLACENTA-LIKE ORGANOID, AND PRODUCTION OR TEST KIT” (FUJIFILM Corporation, priority 2020, published 2022)
